{"source": "patent US20120003245A1", "about": "(UNIVERSITY OF GUELPH, published 2012)", "binders": {"B1": {"name": "anti-α-cobratoxin VHH C20 (VHH)", "VHH": "QVKLEESGGGLVQPGGSLRLSCVGSGSISSFNGMGWYRQVPGKQRELVAFISSGGRSKYTDSVKGRFTISGDNAKSTVYLQMINLKPEDTAVYYCNVGSVLSYVTGNYYEPSDYWGQGTQVTVSS"}, "B2": {"name": "anti-α-cobratoxin VHH C19 (VHH)", "VHH": "QVKLEESGGGLAQAGGSLRLSCIGSGDISSFNAMGWYRQVPGKQRELVAFISSGGRSKYTDSVKGRFTISGDNAKNTVYLQMIDLKPEDTAVYYCNAGSVVSYETGNYYEPSNYWGQGTQVTVSS"}, "B3": {"name": "anti-α-cobratoxin VHH C2 (VHH)", "VHH": "QVKLEESGGGLVLPGGSLRLSCAASGSISSIYAMGWYRQAPGKQREVVAVITNGNSPNYADSVKGRFTISRDNAKNTVYLQMNSLKPEDTAVYYCNVEGVRYGDSWYDGDYWGQGTQVTVSS"}, "B4": {"name": "anti-α-cobratoxin VHH C43 (VHH)", "VHH": "B3 VHH with Q1R, L13Q, P14A, A24V, I28T, S29F, S30D, I31D, M34I"}}, "note": "Changes are numbered by the printed parent chain."}
{"molecular_target": "α-cobratoxin (Naja kaouthia, UniProt P01391)", "sequence (P01391 whole entry)": "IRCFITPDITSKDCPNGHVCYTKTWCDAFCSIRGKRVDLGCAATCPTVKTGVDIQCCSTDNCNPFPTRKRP", "units": {"Kd": "nM", "koff": "s⁻¹", "kon": "M⁻¹ s⁻¹"}}
{"binder": "B1", "Kd": 1, "koff": 0.0017, "kon": "1.8e+06"}
{"binder": "B2", "Kd": 25, "koff": 0.01, "kon": 580000}
{"binder": "B3", "Kd": 0.4, "koff": 0.00019, "kon": 520000}
{"binder": "B4", "Kd": 24, "koff": 0.0068, "kon": 290000}
